This is an account of results in article PMC2528183.

In data set [1] the target is Thermus thermophilus RecR (ttRecR), wild type (Thermus thermophilus). Description: SEC. (In gel filtration, larger molecules generally elute earlier.)
Data set [2] shares this target. Kind of data set: SAXS.
In data set [3] the target is Thermus thermophilus RecF (ttRecF) (Thermus thermophilus). Kind of data set: SAXS.
The target of data set [4] is Thermus thermophilus RecR (ttRecR), wild type (Thermus thermophilus). Description: SAXS. This is another data set of the same source.
The next data set has as its target T1, ttRecF;ttRecR (Thermus thermophilus;Thermus …, UniProt Q5SLM9;Q5SHY0 1-343;1-194, |).
T1 sequence 1: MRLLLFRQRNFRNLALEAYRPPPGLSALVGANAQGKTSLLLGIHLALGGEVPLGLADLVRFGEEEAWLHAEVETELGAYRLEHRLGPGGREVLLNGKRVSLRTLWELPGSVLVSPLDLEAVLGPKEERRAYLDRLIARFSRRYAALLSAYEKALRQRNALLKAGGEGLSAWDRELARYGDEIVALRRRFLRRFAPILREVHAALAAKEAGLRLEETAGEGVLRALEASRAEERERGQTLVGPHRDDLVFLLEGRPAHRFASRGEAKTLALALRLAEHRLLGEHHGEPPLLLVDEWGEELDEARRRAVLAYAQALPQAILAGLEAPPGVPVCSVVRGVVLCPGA
T1 sequence 2: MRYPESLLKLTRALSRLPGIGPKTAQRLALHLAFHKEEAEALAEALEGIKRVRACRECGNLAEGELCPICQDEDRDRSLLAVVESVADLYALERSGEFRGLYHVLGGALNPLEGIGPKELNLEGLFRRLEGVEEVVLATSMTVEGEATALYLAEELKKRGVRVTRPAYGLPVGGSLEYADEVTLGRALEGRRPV
Kind of data set: EMSA. On the technique in general: In EMSA bound probe runs differently from free probe, usually more slowly.

A further data set concerns the target T2, ttRecF (Thermus thermophilus, UniProt Q5SLM9 1-343).
T2 sequence: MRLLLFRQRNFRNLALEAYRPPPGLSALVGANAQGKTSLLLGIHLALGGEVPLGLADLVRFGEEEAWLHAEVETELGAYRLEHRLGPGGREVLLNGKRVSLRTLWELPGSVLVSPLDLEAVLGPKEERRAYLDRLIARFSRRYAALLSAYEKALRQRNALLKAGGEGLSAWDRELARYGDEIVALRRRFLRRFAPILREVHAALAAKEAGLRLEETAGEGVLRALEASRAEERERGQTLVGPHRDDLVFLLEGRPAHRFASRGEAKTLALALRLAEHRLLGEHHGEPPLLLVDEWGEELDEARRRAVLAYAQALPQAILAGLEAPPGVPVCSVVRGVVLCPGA
Description: EMSA.

In the next data set the target is T3, ttRecR (Thermus thermophilus, UniProt Q5SHY0 1-194).
T3 sequence: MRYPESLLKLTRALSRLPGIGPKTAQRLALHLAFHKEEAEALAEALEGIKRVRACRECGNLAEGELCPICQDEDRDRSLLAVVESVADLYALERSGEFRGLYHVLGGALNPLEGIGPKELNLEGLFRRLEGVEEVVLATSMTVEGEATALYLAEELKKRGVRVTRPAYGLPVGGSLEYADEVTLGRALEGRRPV
Description: EMSA.

On to “Thermus thermophilus RecR (ttRecR), wild type (natural protein)”, for which the stoichiometry N (as a rule, the number of molecules, sites or subunits per partner or assembly) in data set [1] was found to be 2; in data set [2] it was 2; in data set [4], 4. Moreover, in data set [3], the N, ttRecF chains in the complex came out at 2. Also, the N, ttRecR chains in the complex in data set [3] was 4.

B1: 70 bp dsDNA (dsDNA)
DNA 1: GCGATCCTTATTAAAACGGCAACTCCTCCTCCGGCGGAAAGTCTTCCAAGCCTTCGTCAATGTCCACCCC
DNA 2: GGGGTGGACATTGACGAAGGCTTGGAAGACTTTCCGCCGGAGGAGGAGTTGCCGTTTTAATAAGGATCGC
For the molecule B1, the binding result was “binds” with ttRecF;ttRecR, “binds” with ttRecF and “no binding” with ttRecR.
